Test results taken from paper PMC314469, “Protein Interaction Networks by Proteome Peptide Scanning” (PLoS Biology, 2004).

T1: amphyphisin SH3 (AMPH_HUMAN), P49418
T1 chain: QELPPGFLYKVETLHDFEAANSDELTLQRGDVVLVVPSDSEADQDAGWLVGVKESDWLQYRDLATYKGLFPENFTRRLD


Experiments:
[1] = biological target: T1, amphyphisin SH3 (AMPH_HUMAN), P49418; experiment: SPOT array
[2] = biological target: endophilin SH3 (SH3G2_HUMAN), Q99962; experiment: SPOT array

| normalised SPOT signal, Boehringer light units (BLU); mean over the file's lines of this peptide [1] | normalised SPOT signal, Boehringer light units (BLU); mean over the file's lines of this peptide [2] | Binder |
| --- | --- | --- |
| 131 | 147 | EQVDLIRPWRRLLE [Q9NU22 852-865] |
| 44.4 | 2240 | EPPPPQKPPPPNSK [Q03111 455-469] |
| 92.2 | 2690 | ERPPPFKPPPPPIK [P40200 535-549] |
| 11900 | 1010 | EQKRPLRPRRKGRK [Q9P2K1 987-1000] |
| 203 | 805 | AGPRPRRPGSLPGW [Q14333 377-390] |
| 2690 | 295 | ESSGPPRPSRGPAA [Q9UHD9 6-19] |
| 272 | 102 | AGSSPGKPPRLVGG [P01034 24-38] |
| 42 | 49.5 | ESQSPKRPPEDFET [Q16632 163-177] |
| 104 | 40.1 | EPEEPKRPVPAERG [Q16584 619-632] |
| 4090 | 220 | ETISPLRPQRPKSQ [Q14185 1731-1744] |
| 79.9 | 440 | ETSMLKRPVLLHLH [Q9UHE8 34-47] |
| 42.3 | 4.5 | ERDFLKRPLESYVK [Q10472 159-172] |
| 52.8 | 96.9 | ESSRPVKPPKKDVP [O60885 322-336] |
| 374 | 59.4 | EPGLPVRPPGGGQS [O95954 457-471] |
| 33.6 | 92.4 | EQPPPGRPPLRLED [Q9Y334 62-76] |
| 38.5 | 926 | ETSGPERPPEKPRK [O75408 12-26] |
| 32.2 | 159 | EQYIPSRPLKTQEL [Q9Y259 145-158] |
| 1820 | 601 | EMTPPPKPPRLYLP [Q9UM03 505-519] |
| -0 | -0 | ELYPISRPLKKTWE [Q15047 309-322] |
| 129 | 178 | ELYLLFRPFKGYEG [Q93062 39-52] |
| 47.3 | 86.4 | EQGSLKRPVSRKVG [O15021 1020-1033] |

The next lines start with the binder.

| Binder | normalised SPOT signal, Boehringer light units (BLU); mean over the file's lines of this peptide [1] | normalised SPOT signal, Boehringer light units (BLU); mean over the file's lines of this peptide [2] |
| --- | --- | --- |
| ETMYLRRPEGIERQ [Q9H5V9 75-88] | 20.5 | 128 |
| ESRDITRPSRPADL [Q9Y6Z1 10-23] | 192 | 134 |
| AGSDPKRPEMPSKK [P23470 686-699] | 23.2 | 66.5 |
| EQRPLKRPRLGPPD [Q96PC8 10-23] | 31 | 446 |
| EREALKRPMGPVHY [Q9P0R4 128-141] | 11.6 | 50.5 |
| ESGRPIKPPRKDLP [P25440 318-332] | 8960 | 1950 |
| ESPPPKRPRIAYLS [P36508 395-408] | 39.3 | 332 |
| EMPHLARPIKVESP [Q08050 469-482] | 145 | 158 |
| ENDNIERPVRRRHS [Q9NR92 11-24] | 88.7 | 59.3 |
| ESRDITRPSRPASY [O60298 756-769] | 539 | 192 |
| ETLTFKRPEGMHRE [Q9NPF5 43-56] | 29.5 | 0 |
| EQFKIKRPAAWVDL [O43301 404-417] | 4.3 | 0 |
| EPPAPRRPASLAQR [Q9NP57 254-267] | 37.1 | 831 |
| EREFLERPSRDHLY [Q12968 137-150] | 334 | 108 |
| EMEPPPKPPRSSSA [Q9H7I0 90-104] | 4690 | 298 |
| ESPLPRRPPRAARS [P81408 388-402] | 23200 | 8150 |
| ETNIPQRPSRPARR [Q9HBL3 239-252] | 20700 | 1800 |
| ENESPLKPPGISMD [Q92610 35-49] | 50.4 | 22.2 |
| ETGALRRPQLLPLL [O60896 2-15] | 39.4 | 127 |
| EQGGLLRPERDHVE [Q9ULV5 88-101] | 79.3 | 66.9 |
| AGPRLPRPPREGST [Q9H224 58-71] | 2230 | 1130 |
